Like-named read-outs stand apart in the source and are kept apart here.
Key:
[1] = molecular target: HIV-1 Env of the BG505 strain (on pseudovirus) (HIV-1)
[2] = molecular target: panel of 208 geographically and genetically diverse HIV-1 Env pseudoviruses
[3] = molecular target: panel of 208 geographically and genetically diverse HIV-1 Env pseudoviruses; remark: listed apart in the source
[4] = molecular target: HIV-1 Env of pseudovirus Q259.17 (clade A) (HIV-1)
[5] = molecular target: HIV-1 Env of pseudovirus CH038.12 (clade BC) (HIV-1)
[6] = molecular target: HIV-1 Env of pseudovirus 246-F3.C10.2 (clade AC) (HIV-1)
[7] = molecular target: HIV-1 Env of pseudovirus 16936-2.21 (clade C) (HIV-1)
[8] = molecular target: HIV-1 Env of pseudovirus CAP256.206.C9 (clade C) (HIV-1)
[9] = molecular target: HIV-1 Env of pseudovirus 191821.E6.1 (clade D) (HIV-1)
[10] = molecular target: HIV-1 Env of pseudovirus ZM233.6 (clade C) (HIV-1)
[11] = molecular target: HIV-1 Env of the BG505 strain (on pseudovirus) (HIV-1); remark: listed apart in the source
[12] = molecular target: HIV-1 Env of the BG505 strain (on pseudovirus) (HIV-1); remark: listed apart in the source
[13] = molecular target: HIV-1 Env of pseudovirus ZM233.6 (clade C) (HIV-1); remark: listed apart in the source

Molecule | IC50 [1] [ng/mL] | IC80 [1] [µg/mL] | % of viruses neutralized, IC50 50 µg/mL [2] [%] | Mean IC50 (geometric mean, samples with IC50 < 50 µg/mL) [2] [µg/mL] | Median IC50 (samples with IC50 < 50 µg/mL) [2] [µg/mL] | % of viruses neutralized, IC80 < 1.0 µg/mL [3] [%] | Mean IC80 (geometric mean, samples with IC80 < 50 µg/mL) [3] [µg/mL] | Median IC80 (samples with IC80 < 50 µg/mL) [3] [µg/mL] | further results
PGT145 N(100l)D (antibody) | 3 | 0.01 |  |  |  |  |  |  | 
PGT145 (antibody, V domains shown) VH: QVQLVQSGAEVKKPGSSVKVSCKASGNSFSNHDVHWVRQATGQGLEWMGWMSHEGDKTGLAQKFQGRVTITRDSGASTVYMELRGLTADDTAIYYCLTGSKHRLRDYFLYNEYGPNYEEWGDYLATLDVWGHGTAVTVSS VL: EVVITQSPLFLPVTPGEAASLSCKCSHSLQHSTGANYLAWYLQRPGQTPRLLIHLATHRASGVPDRFSGSGSGTDFTLKISRVESDDVGTYYCMQGLHSPWTFGQGTKVEIKR | 10 | 0.253 | 75 | 0.086 | 0.053 | 39 | 0.343 | 0.276 | IC50 (WT) [4]: 45 µg/mL; IC50 (WT) [5]: 46.5 µg/mL; IC50 (WT) [6]: 17.4 µg/mL; IC50 (WT) [7]: 5.14 µg/mL; IC50 (WT) [8]: 3.95 µg/mL; IC50 (WT) [9]: 3.35 µg/mL
PG9RSH N(100f)Y (antibody, V domains shown) VH: ERLVESGGGVVQPGSSLRLSCAASGFDFSRQGMHWVRQAPGQGLEWVAFIKYDGSEKYHADSVWGRLSISRDNSKDTLYLQMNSLRVEDTATYFCVREAGGPDYRNGYYYYDFYDGYYNYHYMDVWGKGTTVTVSS VL: QSALTQPASVSGSPGQSITISCQGTSNDVGGYESVSWYQQHPGKAPKVVIYDVSKRPSGVSNRFSGSKSGNTASLTISGLQAEDEGDYYCKSLTSRSHRVFGTGTKLTVLG |  |  | 83 | 0.04 | 0.025 | 62 | 0.106 | 0.086 | fold decrease in IC50 relative to wild type [10]: 63 fold; IC50 [11]: 9 ng/mL; IC80 [11]: 0.023 µg/mL
PG9RSH Y(100k)D (antibody, V domains shown) VH: ERLVESGGGVVQPGSSLRLSCAASGFDFSRQGMHWVRQAPGQGLEWVAFIKYDGSEKYHADSVWGRLSISRDNSKDTLYLQMNSLRVEDTATYFCVREAGGPDYRNGYNYYDFDDGYYNYHYMDVWGKGTTVTVSS VL: QSALTQPASVSGSPGQSITISCQGTSNDVGGYESVSWYQQHPGKAPKVVIYDVSKRPSGVSNRFSGSKSGNTASLTISGLQAEDEGDYYCKSLTSRSHRVFGTGTKLTVLG |  |  | 87 | 0.035 | 0.017 | 63 | 0.078 | 0.058 | IC50 [12]: 4 ng/mL; IC80 [12]: 0.01 µg/mL; IC50 (variant) [13]: 1 ng/mL; fold-change in IC50 between wild type and variant [13]: 110 fold

From patent US20260152546A1
